The experiment has as its target FLAG-Sur1 (UniProt Q09427). As to the kind of experiment: FRET or BRET. (BRET reads energy transfer from a luciferase to a nearby fluorophore.)
UniProt Q09427, sequence (Q09427 whole entry): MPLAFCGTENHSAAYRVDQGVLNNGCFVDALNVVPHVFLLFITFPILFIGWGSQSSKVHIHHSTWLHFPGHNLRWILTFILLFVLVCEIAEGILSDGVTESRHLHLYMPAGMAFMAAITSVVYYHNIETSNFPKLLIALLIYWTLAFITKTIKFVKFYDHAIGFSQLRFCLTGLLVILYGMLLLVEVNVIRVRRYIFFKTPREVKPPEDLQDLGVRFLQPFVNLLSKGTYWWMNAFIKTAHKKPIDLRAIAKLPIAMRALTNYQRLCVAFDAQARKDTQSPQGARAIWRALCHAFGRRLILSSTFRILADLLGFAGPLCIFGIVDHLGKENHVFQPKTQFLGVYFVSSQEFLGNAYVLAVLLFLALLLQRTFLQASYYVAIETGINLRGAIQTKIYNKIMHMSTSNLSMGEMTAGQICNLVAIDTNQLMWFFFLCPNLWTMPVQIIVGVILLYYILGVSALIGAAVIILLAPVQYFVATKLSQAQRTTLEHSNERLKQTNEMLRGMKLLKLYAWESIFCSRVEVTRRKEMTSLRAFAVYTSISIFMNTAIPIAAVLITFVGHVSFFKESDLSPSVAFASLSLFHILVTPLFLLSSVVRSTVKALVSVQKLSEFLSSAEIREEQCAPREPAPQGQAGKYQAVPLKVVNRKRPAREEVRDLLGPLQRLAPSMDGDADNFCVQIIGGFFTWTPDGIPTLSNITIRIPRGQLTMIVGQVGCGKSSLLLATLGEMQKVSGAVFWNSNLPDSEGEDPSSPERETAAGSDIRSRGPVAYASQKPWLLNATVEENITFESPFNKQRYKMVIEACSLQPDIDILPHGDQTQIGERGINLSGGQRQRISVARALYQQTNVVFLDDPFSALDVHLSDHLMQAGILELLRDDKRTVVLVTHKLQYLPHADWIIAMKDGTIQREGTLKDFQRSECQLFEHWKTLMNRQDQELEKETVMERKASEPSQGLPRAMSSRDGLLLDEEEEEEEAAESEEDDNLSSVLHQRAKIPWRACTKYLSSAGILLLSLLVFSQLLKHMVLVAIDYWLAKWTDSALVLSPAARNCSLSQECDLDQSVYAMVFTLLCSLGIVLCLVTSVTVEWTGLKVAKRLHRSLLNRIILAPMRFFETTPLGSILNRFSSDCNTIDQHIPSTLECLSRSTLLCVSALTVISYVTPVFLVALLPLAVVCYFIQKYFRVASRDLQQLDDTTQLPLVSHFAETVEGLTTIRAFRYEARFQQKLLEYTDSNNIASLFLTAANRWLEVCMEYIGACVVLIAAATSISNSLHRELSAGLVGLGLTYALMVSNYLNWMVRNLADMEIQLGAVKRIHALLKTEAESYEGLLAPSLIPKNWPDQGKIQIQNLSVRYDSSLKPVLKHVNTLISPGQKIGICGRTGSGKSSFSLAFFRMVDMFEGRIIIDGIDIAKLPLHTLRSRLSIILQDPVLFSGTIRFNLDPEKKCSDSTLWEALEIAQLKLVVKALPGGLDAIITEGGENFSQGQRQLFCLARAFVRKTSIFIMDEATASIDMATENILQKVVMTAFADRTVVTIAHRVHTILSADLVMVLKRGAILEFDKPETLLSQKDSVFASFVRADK

“Myc-Trpm4 (from UniProt Q7TN37-1 1-1213) (natural protein)” registered an FRET efficiency at steady state of 11%.

The values are drawn from paper PMC3561583.
